Test results published in patent publication US20230183233A1, “Bicyclic Pyridin-2-one and pyrimidin-4-one Derivatives Useful As a Factor XIa Inhibitors” (Janssen Pharmaceutica NV, priority 2021, published 2023).

Tested on: Cc1cc(=O)oc2cc(NC(=O)[C@H](CCCNC(=N)N)NC(=O)[C@@H]3CCCN3C(=O)CNC(=O)OCc3ccccc3)ccc12
Assay: Kallikrein inhibition assay utilizing a quenched AMC peptide substrate (FLINT, kinetic read)
Format: biochemical, human
Settings: other: peptide substrate for kallikrein; titration data fit to the Michaelis-Menten equation; pH 7.5

Chain of human plasma kallikrein (Homo sapiens) (chain, as listed by the source): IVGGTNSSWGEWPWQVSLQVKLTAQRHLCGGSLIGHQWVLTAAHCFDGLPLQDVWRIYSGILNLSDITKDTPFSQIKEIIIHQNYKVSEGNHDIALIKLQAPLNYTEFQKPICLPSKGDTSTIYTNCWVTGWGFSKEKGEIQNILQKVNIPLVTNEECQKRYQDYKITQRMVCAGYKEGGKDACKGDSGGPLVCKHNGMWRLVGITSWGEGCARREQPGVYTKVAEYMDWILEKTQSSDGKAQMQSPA

human plasma kallikrein (Homo sapiens) was tested, and the Km was 40 µM, the kcat was 0.76 s⁻¹ and the kcat/Km was 18932 M-is-1.
